B1: CLPTM1 (parent)
chain: LGCYAVYSLLYLEHKGWYSWVLSM

Variants of: B1
Test: protein stability index of a GFP-peptide fusion (GPS, HEK-293T) (PSI 1-6); higher = more stable
Settings: c terminus: a fixed tail appended
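Note: lentivirally expressed fusions sorted by FACS into six bins by GFP to DsRed ratio, PSI derived from sequencing read proportions per bin multiplied by bin number.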

Variant	protein stability index
LGCYAVYSLLYLETKGWYSWVLSM [H14T]	3.37
LGCYAVYSLLYLEIKGWYSWVLSM [H14I]	2.44
LGCYAVYSLLYLEWKGWYSWVLSM [H14W]	3.16
LGCYAVYSLLYLECKGWYSWVLSM [H14C]	2.45
LGCYAVYSLLYLEVKGWYSWVLSM [H14V]	2.52
LGCYAVYSLLYLEDKGWYSWVLSM [H14D]	2.41
LGCYAVYSLLYLEPKGWYSWVLSM [H14P]	2.6
LGCYAVYSLLYLEGKGWYSWVLSM [H14G]	2.4
LGCYAVYSLLYLEQKGWYSWVLSM [H14Q]	3.42
LGCYAVYSLLYLESKGWYSWVLSM [H14S]	2.43
LGCYAVYSLLYLEMKGWYSWVLSM [H14M]	2.53
LGCYAVYSLLYLENKGWYSWVLSM [H14N]	2.58
LGCYAVYSLLYLEAKGWYSWVLSM [H14A]	3.68
LGCYAVYSLLYLEFKGWYSWVLSM [H14F]	3.12
LGCYAVYSLLYLERKGWYSWVLSM [H14R]	2.22
LGCYAVYSLLYLEHKGIYSWVLSM [W17I]	2.71
LGCYAVYSLLYLEHKGCYSWVLSM [W17C]	2.36
LGCYAVYSLLYLEHKGLYSWVLSM [W17L]	2.96
LGCYAVYSLLYLEHKGAYSWVLSM [W17A]	3.3
LGCYAVYSLLYLEHKGFYSWVLSM [W17F]	1.55
LGCYAVYSLLYLEHKGEYSWVLSM [W17E]	2.81
LGCYAVYSLLYLEHKGDYSWVLSM [W17D]	2.76
LGCYAVYSLLYLEHKGNYSWVLSM [W17N]	4.13
LGCYAVYSLLYLEHKGKYSWVLSM [W17K]	3.85

Variant	protein stability index
LGCYAVYSLLYLEHKGRYSWVLSM [W17R]	2.16
LGCYAVYSLLYLEHKGGYSWVLSM [W17G]	2.14
LGCYAVYSLLYLEHKGPYSWVLSM [W17P]	2.44
LGCYAVYWLLYLEHKGWYSWVLSM [S8W]	1.43
LGCYAVYGLLYLEHKGWYSWVLSM [S8G]	4.38
LGCYAVYVLLYLEHKGWYSWVLSM [S8V]	1.96
LGCYAVYTLLYLEHKGWYSWVLSM [S8T]	2.09
LGCYAVYILLYLEHKGWYSWVLSM [S8I]	3.15
LGCYAVYKLLYLEHKGWYSWVLSM [S8K]	3.64
LGCYAVYNLLYLEHKGWYSWVLSM [S8N]	4.1
LGCYAVYALLYLEHKGWYSWVLSM [S8A]	2.25
LGCYAVYHLLYLEHKGWYSWVLSM [S8H]	2.55
LGCYAVYPLLYLEHKGWYSWVLSM [S8P]	3.57
LGCYAVYELLYLEHKGWYSWVLSM [S8E]	1.27
LGCYAVYCLLYLEHKGWYSWVLSM [S8C]	2.96
LGCYAVMSLLYLEHKGWYSWVLSM [Y7M]	3.54
LGCYAVISLLYLEHKGWYSWVLSM [Y7I]	3.09
LGCYAVWSLLYLEHKGWYSWVLSM [Y7W]	3.23
LGCYAVRSLLYLEHKGWYSWVLSM [Y7R]	2.82
LGCYAVFSLLYLEHKGWYSWVLSM [Y7F]	3.72
LGCYAVQSLLYLEHKGWYSWVLSM [Y7Q]	2.39
LGCYAVHSLLYLEHKGWYSWVLSM [Y7H]	2.13
LGCYAVKSLLYLEHKGWYSWVLSM [Y7K]	2.19
LGCYAVNSLLYLEHKGWYSWVLSM [Y7N]	5.04

Variant	protein stability index
LGCYAVESLLYLEHKGWYSWVLSM [Y7E]	2.54
LGCYAVPSLLYLEHKGWYSWVLSM [Y7P]	3.71
LGCYAVCSLLYLEHKGWYSWVLSM [Y7C]	3.42
LGCYAVDSLLYLEHKGWYSWVLSM [Y7D]	3.78
LGCYAVVSLLYLEHKGWYSWVLSM [Y7V]	3.4
LGCYAVYSLLYLIHKGWYSWVLSM [E13I]	4.56
LGCYAVYSLLYLAHKGWYSWVLSM [E13A]	1.11
LGCYAVYSLLYLYHKGWYSWVLSM [E13Y]	2.12
LGCYAVYSLLYLTHKGWYSWVLSM [E13T]	3.83
LGCYAVYSLLYLFHKGWYSWVLSM [E13F]	3.1
LGCYAVYSLLYLCHKGWYSWVLSM [E13C]	2.64
LGCYAVYSLLYLGHKGWYSWVLSM [E13G]	1.95
LGCYAVYSLLYLPHKGWYSWVLSM [E13P]	3.78
LGCYAVYSLLYLLHKGWYSWVLSM [E13L]	3.4
LGCYAVYSLLYLHHKGWYSWVLSM [E13H]	3.66
LGCYAVYSLLYLMHKGWYSWVLSM [E13M]	2.58
LGCYAVYSLLYLDHKGWYSWVLSM [E13D]	2.51
LGCYAVYSLLYVEHKGWYSWVLSM [L12V]	2.89
LGCYAVYSLLYNEHKGWYSWVLSM [L12N]	4.59
LGCYAVYSLLYSEHKGWYSWVLSM [L12S]	2.02
LGCYAVYSLLYPEHKGWYSWVLSM [L12P]	3.25
LGCYAVYSLLYREHKGWYSWVLSM [L12R]	4.16
LGCYAVYSLLYQEHKGWYSWVLSM [L12Q]	3.59
LGCYAVYSLLYWEHKGWYSWVLSM [L12W]	2.4

Variant	protein stability index
LGCYAVYSLLYFEHKGWYSWVLSM [L12F]	3.31
LGCYAVYSLLYKEHKGWYSWVLSM [L12K]	3.11
LGCYAVYSLLYGEHKGWYSWVLSM [L12G]	3.12
LGCYAVYSLLYTEHKGWYSWVLSM [L12T]	2.14
LGCYAVYSLLYDEHKGWYSWVLSM [L12D]	2.74
LGCYAVYSLLYHEHKGWYSWVLSM [L12H]	2.99
LGCYAVYSLLYCEHKGWYSWVLSM [L12C]	2.68
LGCYAVYSLLYYEHKGWYSWVLSM [L12Y]	2.43
LGCYAVYSLLYEEHKGWYSWVLSM [L12E]	3.57
LGCYAVYSLLYMEHKGWYSWVLSM [L12M]	4.09
LGCYAVYSLLYIEHKGWYSWVLSM [L12I]	3.36
LGCYAVYSLLYLEHKMWYSWVLSM [G16M]	2.67
LGCYAVYSLLYLEHKHWYSWVLSM [G16H]	3.98
LGCYAVYSLLYLEHKFWYSWVLSM [G16F]	2
LGCYAVYSLLYLEHKDWYSWVLSM [G16D]	2.47
LGCYAVYSLLYLEHKEWYSWVLSM [G16E]	2.88
LGCYAVYSLLYLEHKTWYSWVLSM [G16T]	2.75
LGCYAVYSLLYLEHKRWYSWVLSM [G16R]	1.42
LGCYAVYSLLYLEHKVWYSWVLSM [G16V]	2.84
LGCYAVYSLLYLEHKNWYSWVLSM [G16N]	2.7
LGCYAVYSLLYLEHKPWYSWVLSM [G16P]	2.75
LGCYAVYSLLYLEHKAWYSWVLSM [G16A]	4.05
